Experimental data reported in publication PMC2807033.
pKd: −log10 of the molar value.

Target: RepΔC33 (Rep lacking the C-terminal 33 residues) (E. coli) (UniProt P09980)
Assay: not stated; apparent KD (equilibrium dissociation constant), Figure S5; the method is not told in the text shown (SPR is the only quantitative binding method that the paper names)

pKd: 5.77
Substance: E. coli replicative helicase DnaB, purified (from UniProt P0ACB0 1-471) (enzyme)
